From patent US10240133B2, “ERK-derived peptides and uses thereof” (Yeda Research and Development Co. Ltd., priority 2013, dated 2019) come the findings set out here.

The nature of this data set: Systemic toxicity in xenograft-bearing mice (body weight, organ histology). The following applies: treated animals, end of experiment.

Experimental: Female SCID mice (Harlan), 5-6 weeks of age, were inoculated s.c. into the flank region with 10^7 A2352 cells in 150 μl mixture of PBS with matrigel (2:1). Tumors were allowed to develop to the size of 5-6.5 mm in diameter (50˜110 mm^3 volume) and then the animals were randomly allocated to different treatment groups. The peptides (100 mM stock in DMSO), were diluted to the necessary concentration in PBS and boiled for 5 minutes. Then, DMSO, Scr or EPE peptides were administered by i.v. injection into the tail vein (150 μl/mouse, 3 times a week). Tumor dimensions were measured with a digital sliding caliper. Tumor volume was calculated using the formula: V=D1×D2×D3×π/6, where D1, D2, D3—represent the three mutually orthogonal growth diameters. To assess any signs of systemic toxicity, body weight was monitored, and recorded at the end of the experiment.
Tumor xenografts, lungs, livers, kidneys and hearts of animals from different treatment groups were removed and subjected for histological analysis by staining of 5 μm paraffin embedded tissue slides with H&E, and examination by light microscope. […] Briefly, paraffin embedded blocks of tumors after different treatments were cut at 4 μm thickness and stained with ERK Abs, followed by second antibodies conjugated to peroxidase and DAB staining. Representative fields of each specimen were photographed at ×20 and ×40 magnifications.

Turning to “GQLNHILGILGEPEQED (Synthetic peptide (EPE)) [EPE peptide]”, the “change in weight, organ morphology or other toxicity-related effects” value is “None of the animal treated exhibited any significant change”.
